Numbering of substitutions follows the chain as printed.
B1: H1 K1: humanised mAb, first approach CDR-grafting; VH H1 (SEQ ID NO: 16), VL K1 (SEQ ID NO: 15) (antibody, V domains shown)
VH: QVQLVQSGAEVKKPGASVKVSCKASGYTLSSYWMHWVRQAPGQGLEWMGIILPGSGSTSYAQKFQGRVTMTRDTSTSTVYMELSSLRSEDTAVYYCAREGWYFDVWGAGTTVTVSS
VL: DVVMTQSPLSLPVTLGQPASISCRSSQSLLYSNGNTHLNWFQQRPGQSPRRLIYLVSNRDSGVPDRFSGSGSGTDFTLKISRVEAEDVGVYYCVQGTHFPYTFGGGTKLEIK
modifications: VH-H1; VL-K1
B2: H5 K5: humanised mAb, third approach (Kabat); VH H5 (SEQ ID NO: 22), VL K5 (SEQ ID NO: 21) (antibody, V domains shown)
VH: QVQLQQSGAELKKPGASVKISCKASGYTLSSYWLEWVRQRPGQGLEWIGEILPGSGSTNYNEKFKGRATFTADTSTNTAYMELSSLTSEDSAVYYCAREGWYFDVWGQGTTVTVSS
VL: B1 VL with V2I, R24K, F41Y, N58K, R59L
modifications: VH-H5; VL-K5
B3: H5 K7: humanised mAb combining heavy chain H5 (SEQ ID NO: 22) and light chain K7 (SEQ ID NO: 25) (antibody, V domains shown)
VH: B2 VH
VL: B1 VL with V2I, R24K, F41Y, Q42L, R50K, N58K, R59L
modifications: VH-H5; VL-K7
B4: H3 K1: humanised mAb combining heavy chain H3 (SEQ ID NO: 20) and light chain K1 (SEQ ID NO: 15) (antibody, V domains shown)
VH: QVQLVQSGAEVKKPGASVKVSCKASGYTLSSYWIHWVRQAPGQGLEWIGWILPGSGSTNYAQKFQGKATITADKSTSTAYMELSSLRSEDTAVYYCAREGWYFDVWGQGTLVTVSS
VL: B1 VL
modifications: VH-H3; VL-K1
B5: H6 K1: humanised mAb combining heavy chain H6 (SEQ ID NO: 24) and light chain K1 (SEQ ID NO: 15) (antibody, V domains shown)
VH: B2 VH with L34I, E35H
VL: B1 VL
modifications: VH-H6; VL-K1
B6: H3/K3: humanised recombinant Ab, second approach; VH H3 (SEQ ID NO: 20), VL K3 (SEQ ID NO: 19) (antibody, V domains shown)
VH: B4 VH
VL: DIVMTQTPLSLSVTPGQPASISCKSSQSLLYSNGNTHLNWYLQRPGQSPQLLIYLVSNRASGVPDRFTGSGSGTDFTLKISRVEAEDVGVYYCVQGTHFPYTFGGGTKVEIK
modifications: VH-H3; VL-K3
B7: H5 K3: humanised mAb combining heavy chain H5 (SEQ ID NO: 22) and light chain K3 (SEQ ID NO: 19) (antibody, V domains shown)
VH: B2 VH
VL: B6 VL
modifications: VH-H5; VL-K3

Columns and labels:
[1] = system: C. auris; conditions: different C. auris strains, literature; cited from earlier work
[2] = system: C. auris; assay: Time-kill curve, drug alone and combined with hmAb 2G8; format: cell-based
From the text: To support and deepen the data coming from MIC assays, a time-kill curve was elaborated to evaluate how the hmAb 2G8 combined with caspofungin or amphotericin B could improve their basal activity on C. auris.

[3] = system: C. auris; assay: EUCAST antifungal MIC assay, drug alone and combined with hmAb 2G8; format: cell-based; conditions: Candidozyma auris; 48 hours, drug alone; read-out: MIC50
Method: To evaluate the susceptibility of C. auris to caspofungin, amphotericin B and their combination with hmAb 2G8, we followed the EUCAST antifungal MIC method (EUCAST E.DEF. 7.3). Antifungal drugs were purchased from Sigma-Aldrich.
The caspofungin and amphotericin B range concentrations analysed were reported in EUCAST document. Those concentrations were tested alone and in combination with 0.25, 2.5, 25 and 250 μg/ml of humanised antibody.
The plates microdilution and the yeast inoculum were prepared as reported in EUCAST document. The wells with 100 μl of 2X final antifungal drugs concentration in RPMI 2% G medium were inoculated with 100 μl (1-5×10^5 CFU/ml) of yeast suspension of C. auris. The monoclonal antibody was added to the samples of yeast suspension to test the combination drug-antibody. The plates were incubated at 37° C. for 24 and 48 hours and read after incubation at 405 nm. The assays were performed in triplicate.
As reported in EUCAST, echinocandins' MIC50 is the lowest drug concentration giving inhibition of≥50% of that of the drug-free control (dotted line). For amphotericin B, MIC50 is the same as for echinocandins while MIC90 is considered as the lowest concentration giving a growth inhibition of≥90% of that of the drug-free control (dotted bold line). […] At 48 hours (D), amphotericin B alone has its MIC50 and 90 at 1 μg/ml.

[4] = ELISA assay on laminarin-coated plates; format: binding; conditions: for Abs 405 nm: ELISA of supernatants of humanised mAbs; for activity in ELISA test: recombinant antibody, laminarin-coated plates
Method: The activity of the purified antibody was then tested by ELISA assay. 96-well plates were coated with 50 μg/ml Laminarin (Sigma-Aldrich, L9634) in 0.05 M carbonate buffer pH 9.6 overnight at 4° C. Nonspecific interactions were blocked with 100 μL/well blocking solution, 3% (w/v) BSA in PBS-Tween 20 (8 g/L NaCl, 0.2 g/L KH2PO4, 2.9 g/L Na2HPO4·12 H2O, 0.2 g/L KCI, 0.05% (v/v) Tween 20, pH 7.4) at 37° C. for 1 h. The plates were then incubated with decreasing concentrations of hmAb 2G8_first approach (comparative purpose) (from 3.12 μg/ml to 0.003 μg/ml, each concentration was tested in triplicate) in blocking solution for 2 h at 37° C. At the same temperature and for the same time, 100 μL Goat anti-human-HRP diluted 1:1000 in blocking solution was poured in each well. After every single passage the plates were washed 5 times with PBS-Tween 20. To reveal the binding, 100 μl of 5 mg-ABTS tablet (Roche Diagnostics) dissolved in 12 ml of sodium citrate (0.05 M, pH 3) and supplemented with 1:1000 dilution hydrogen peroxide (Carlo Erba) was added and after 15, 30, 45 and 60 min the absorbance at 405 nm was measured. For the whole measuring time the plates were left in the dark. IC50 analysis of ELISA test was performed with Prism. The TEST was performed in triplicate.
The surnatants collected from the obtained humanised mAb were tested in ELISA test.
Four supernatants from hmAb according to the invention (H5/K3; H5/K1; H5/K7; H5/K5) were purified to confirm the data. 8 scalar dilutions, starting from 5 μg/ml, were tested.
The purified humanised mAb 2G8 H5/K1 was then tested in an ELISA assay using laminarin as a target.

| Molecule | Abs 405 nm [4] | activity in ELISA test [4] | further results |
| --- | --- | --- | --- |
| C[C@@H](c1ncncc1F)[C@](O)(Cn1cncn1)c1ccc(F)cc1F [voriconazole] | – | – | MIC [1]: about 16 mg/L |
| CC[C@H](C)C[C@H](C)CCCCCCCCC(=O)N[C@H]1C[C@@H](O)[C@@H](NCCN)NC(=O)[C@@H]2[C@@H](O)CCN2C(=O)[C@H]([C@H](O)CCN)NC(=O)[C@H]([C@H](O)[C@@H](O)c2ccc(O)cc2)NC(=O)[C@@H]2C[C@@H](O)CN2C(=O)[C@H]([C@@H](C)O)NC1=O [caspofungin] | – | – | fungistatic effect, log (time-kill curve) ([2]; CAS 0.125 μg/ml, 24 h): −1.88; fungistatic effect, log (time-kill curve) ([2]; CAS 0.125 μg/ml, 48 h): −2.10; fungistatic effect, log (time-kill curve) ([2]; CAS 0.25 μg/ml, 24 h, combination with 250 μg/ml hmAb 2G8 H5K1): −1.11; fungistatic effect, log (time-kill curve) ([2]; CAS 0.25 μg/ml, 48 h, combination with 250 μg/ml hmAb 2G8 H5K1): −1.71; MIC50 [3]: 0.25 µg/mL |
| B1 | 0.35 | not active | – |
| B2 | 1.61 | showed some activity | activity / affinity compared with murine 2G8 ([4]; ELISA): lower than the activity observed for the murine 2G8 |
| B3 | 0.82 | – | – |
| B4 | 0.4 | – | – |
| B5 | 0.27 | – | – |
| B6 | – | not active | – |
| B7 | 2.47 | – | – |
